The values below come from paper PMC5686944.

The target of this experiment is plasminogen (UniProt P00747).
Chain of UniProt P00747 (P00747 20-810): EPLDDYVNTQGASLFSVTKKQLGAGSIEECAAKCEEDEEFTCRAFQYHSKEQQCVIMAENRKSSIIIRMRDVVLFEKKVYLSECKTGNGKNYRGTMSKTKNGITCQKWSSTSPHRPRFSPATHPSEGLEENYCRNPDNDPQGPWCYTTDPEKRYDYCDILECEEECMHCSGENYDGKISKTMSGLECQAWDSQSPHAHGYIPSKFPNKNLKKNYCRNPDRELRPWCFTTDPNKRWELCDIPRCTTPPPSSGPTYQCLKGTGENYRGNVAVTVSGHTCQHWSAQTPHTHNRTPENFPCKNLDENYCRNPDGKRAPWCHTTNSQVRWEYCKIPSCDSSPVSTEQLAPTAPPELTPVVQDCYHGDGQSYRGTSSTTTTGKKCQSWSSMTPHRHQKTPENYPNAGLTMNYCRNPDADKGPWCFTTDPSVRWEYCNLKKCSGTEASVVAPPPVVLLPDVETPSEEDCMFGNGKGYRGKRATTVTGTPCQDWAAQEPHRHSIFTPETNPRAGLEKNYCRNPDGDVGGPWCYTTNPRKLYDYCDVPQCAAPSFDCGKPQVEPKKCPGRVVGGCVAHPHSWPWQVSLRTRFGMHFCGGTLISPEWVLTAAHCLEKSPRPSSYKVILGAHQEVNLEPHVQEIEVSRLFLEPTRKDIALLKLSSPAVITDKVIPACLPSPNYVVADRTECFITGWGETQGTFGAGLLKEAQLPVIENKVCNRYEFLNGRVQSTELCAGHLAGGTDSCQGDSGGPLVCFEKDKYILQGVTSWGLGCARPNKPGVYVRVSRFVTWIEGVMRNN

“wild-type staphylokinase (Sak) (natural protein)” gave a fibrin plate assay, diameter of halo pattern (5.0 x 10^3 IU unmodified Sak, 310 K, 20 h) of 25.4 mm.
